Test results reported in PMC2228010, “Production and characterization of a recombinant anti-MUC1 scFv reactive with human carcinomas” (British Journal of Cancer, 1997).
Positions count from the first letter of the chain named.

Key:
[1] = target: T1, MUC1 antigen on human breast and bladder carcinoma tissue sections (Homo sapiens, UniProt P15941); experiment: immunostaining of cells or tissue; 3 um paraffin sections of breast and transitional cell bladder tumours, no antigen retrieval; primary antibody 1 h; scFv detected with mouse anti-E-Tag (1:50); StreptABC/HRP, diaminobenzidine; details: one partner purified
T1 construct: MUC1 mucin in tumour tissue; also called breast tumour tissue sections; sections from bladder carcinomas; source: endogenous, archival paraffin sections of breast and transitional cell bladder tumours
T1 sequence (P15941 24-1255): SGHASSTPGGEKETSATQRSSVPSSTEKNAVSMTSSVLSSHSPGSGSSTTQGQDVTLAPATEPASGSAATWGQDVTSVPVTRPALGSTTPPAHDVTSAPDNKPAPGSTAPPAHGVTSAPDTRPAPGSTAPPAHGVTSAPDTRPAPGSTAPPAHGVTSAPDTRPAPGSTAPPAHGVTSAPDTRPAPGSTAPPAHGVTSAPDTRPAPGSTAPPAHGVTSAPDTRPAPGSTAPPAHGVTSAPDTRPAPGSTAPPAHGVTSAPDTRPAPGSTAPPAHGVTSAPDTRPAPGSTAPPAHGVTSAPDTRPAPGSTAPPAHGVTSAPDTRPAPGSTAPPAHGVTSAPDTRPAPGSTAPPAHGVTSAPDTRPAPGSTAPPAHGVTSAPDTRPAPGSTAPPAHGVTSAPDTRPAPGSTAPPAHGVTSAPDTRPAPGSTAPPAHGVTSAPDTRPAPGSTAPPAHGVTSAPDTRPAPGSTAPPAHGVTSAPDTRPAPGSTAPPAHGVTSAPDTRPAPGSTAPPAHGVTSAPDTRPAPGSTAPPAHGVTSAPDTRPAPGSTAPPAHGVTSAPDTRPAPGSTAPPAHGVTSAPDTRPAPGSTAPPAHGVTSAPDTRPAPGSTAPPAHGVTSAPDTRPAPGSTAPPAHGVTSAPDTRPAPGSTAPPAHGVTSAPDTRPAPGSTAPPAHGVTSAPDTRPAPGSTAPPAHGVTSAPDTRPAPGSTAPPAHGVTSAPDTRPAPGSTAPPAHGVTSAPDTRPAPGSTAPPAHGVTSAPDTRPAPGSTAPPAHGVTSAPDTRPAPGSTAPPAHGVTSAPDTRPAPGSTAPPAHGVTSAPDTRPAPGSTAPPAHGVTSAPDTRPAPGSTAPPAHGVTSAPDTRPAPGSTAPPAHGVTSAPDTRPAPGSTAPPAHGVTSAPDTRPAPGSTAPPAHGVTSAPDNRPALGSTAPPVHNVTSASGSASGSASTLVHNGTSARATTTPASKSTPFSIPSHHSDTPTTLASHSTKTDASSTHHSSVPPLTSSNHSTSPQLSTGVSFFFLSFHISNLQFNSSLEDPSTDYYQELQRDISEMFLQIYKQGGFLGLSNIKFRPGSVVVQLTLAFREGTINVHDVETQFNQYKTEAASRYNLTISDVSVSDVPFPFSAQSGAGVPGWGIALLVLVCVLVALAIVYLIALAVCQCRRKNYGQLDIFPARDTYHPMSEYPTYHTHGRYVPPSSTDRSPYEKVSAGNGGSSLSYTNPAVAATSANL

[2] = target: T2, immunodominant region related peptide APDTRPAPG (Homo sapiens MUC1 repeat, synthetic); experiment: other fluorescence titration; fluorescence quenching in PBS, excitation 290 nm, emission 345 nm; C595 0.12 uM or C595 scFv 0.27 uM, 2.5 ul aliquots of 60 uM peptide added until maximum quenching; Scatchard analysis; details: both partners purified
T2 construct: stretch of the MUC1 20 amino acid repeat; Free in solution for fluorescence quenching; source: synthetic peptide
T2 chain: APDTRPAPG

p(1-25) peptide = target: T3, p(1-25) peptide (Homo sapiens MUC1 repeat, synthetic); experiment: as above; details: both partners purified
T3 construct: 25 residues of the MUC1 tandem repeat region; source: synthetic peptide
T3 sequence (peptide, as listed by the source): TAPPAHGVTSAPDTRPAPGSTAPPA

105 mer MUC1 peptide = target: T4, 105 mer MUC1 peptide (Homo sapiens MUC1 repeat, synthetic, UniProt P15941); experiment: as above; details: both partners purified
T4 construct: source: synthetic peptide, provided by Dr J Darrell Fontenot

60 mer MUC1 peptide = target: T5, 60 mer MUC1 peptide (Homo sapiens MUC1 repeat, synthetic, UniProt P15941); experiment: as above; details: both partners purified
T5 construct: source: synthetic peptide, provided by Dr J Darrell Fontenot

[3] = target: T2, immunodominant region related peptide …; experiment: peptide epitope affinity chromatography; filtered bacterial supernatant applied to Sepharose 4B conjugated to APDTRPAPG; washed with PBS, 0.02% sodium azide; bound scFv eluted with 3 M sodium thiocyanate; eluate analysed by SDS-PAGE and anti-E-Tag Western blot; details: one partner purified

Measured: binding result

B1: Monoclonal antibody C595 (antibody, V domains shown)
VH: EVQLVESGGGLVQPGGSLKLSCAASGFTFSSYGMSWVRQTPDKRLELVATINSNGGSTYYPDSVKGRFTISRDNAKNTLYLQMSSLKSEDTAMYYCARDRDGYDEGFDYWG
VL: QIVLTQSPAIMSASPGEKVTMTCSASSSVSYMHWYQQKSGTSPKRWIYDTSKLASGVPARFSGSGSGTSYSLTISSMEAEDAATYYCQQWSSNPPTFGGGTKLEIK
notes: mouse IgG3 heavy chain constant region; mouse kappa light chain constant region; IgG3, kappa light chain; it was used at stated concentrations in PBS; also called NCRC-48; source: hybridoma (spleen cells of a BALB/c mouse immunized against purified MUC1 urinary mucin)
not listed: [3]
binds: all other assays above

B2: C595 scFv clone 31 (scFv, V domains shown)
VH: QVQLQESGGGLVQPGGSLKLSCAASGFTFSSYGMSWVRQTPDKRLELVATINSNGGSTYYPDSVKGRFTISRDNAKNTLYLQMSSLKSEDTAMYYCARDRDGYDEGFDYWGPGTTVTVSS
VL: B1 VL with Q1D, V3E, A9S, G100R, I105L
notes: it is not written as a part; About 30 kDa on SDS-PAGE; also called recombinant C595 scFv; the scFv; source: E. coli HB2151 (pCANTAB 5E, IPTG), bacterial culture supernatant; not shown: E-Tag, C-terminal, kept
not listed: [2]
binds: all other assays above
